Publication PMC2064808

Target: GST-β3 integrin cytodomain (human) (UniProt P05106)
Assay: ELISA

UniProt P05106, sequence (P05106 27-788): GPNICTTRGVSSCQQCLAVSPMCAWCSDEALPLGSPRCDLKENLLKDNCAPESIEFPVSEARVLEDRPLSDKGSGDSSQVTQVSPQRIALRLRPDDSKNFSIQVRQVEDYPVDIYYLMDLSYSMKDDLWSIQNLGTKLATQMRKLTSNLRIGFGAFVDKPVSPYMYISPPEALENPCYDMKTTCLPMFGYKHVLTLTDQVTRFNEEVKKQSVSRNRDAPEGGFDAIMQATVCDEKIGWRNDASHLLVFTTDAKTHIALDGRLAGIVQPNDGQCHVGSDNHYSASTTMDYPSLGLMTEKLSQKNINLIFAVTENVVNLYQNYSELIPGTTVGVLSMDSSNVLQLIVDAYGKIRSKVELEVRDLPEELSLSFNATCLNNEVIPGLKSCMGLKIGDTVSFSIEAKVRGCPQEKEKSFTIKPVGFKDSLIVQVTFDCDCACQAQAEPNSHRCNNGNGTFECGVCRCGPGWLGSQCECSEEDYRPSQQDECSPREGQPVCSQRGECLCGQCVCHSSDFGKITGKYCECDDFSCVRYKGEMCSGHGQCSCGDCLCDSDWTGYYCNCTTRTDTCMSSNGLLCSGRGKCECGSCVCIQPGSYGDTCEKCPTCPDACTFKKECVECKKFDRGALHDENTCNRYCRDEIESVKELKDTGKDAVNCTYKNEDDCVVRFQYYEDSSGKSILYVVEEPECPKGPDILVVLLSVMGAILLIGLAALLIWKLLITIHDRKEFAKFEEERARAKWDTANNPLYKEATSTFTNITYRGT

B1: His-PKD1 treated with alkaline phosphatase (enzyme)
chain: MSVPPLLRPPSPLLPAAAAVAAAAAALVPGSGPAPFPAPGAAPAGGISFHLQIGLSREPVLLLQDSSGDYSLAHVREMACSIVDQKFPECGFYGLYDKILLFRHDPASDNILQLVKIASDIQEGDLIEVVLSASATFEDFQIRPHALFVHSYRAPAFCDHCGEMLWGLVRQGLKCEGCGLNYHKRCAFKIPNNCSGVRRRRLSNVSLTGLGTVRTASAEFSTSVPDEPLLSPVSPGFEQKSPSESFIGREKRSNSQSYIGRPIQLDKLLMSKVKVPHTFVIHSYTRPTVCQFCKKLLKGLFRQGLQCKDCRFNCHKRCAPKVPNNCLGEVTINGELLSPGAESDVVMEEGSDDNDSERNSGLMDDMDEAMVQDTEMALAEGQSGGAEMQDPDADQEDSNRTISPSTSNNIPLMRVVQSVKHTKRRSSTVMKEGWMVHYTSKDTLRKRHYWRLDSKCITLFQNDTGSRYYKEIPLSEILCLEPAKPSALTPVGATPHCFEITTANVVYYVGENVVNPSSSPPNNSVLPSGIGPDVARMWEVAIQHALMPVIPKGSSVGSGSNSHKDISVSISVSNCQIQENVDISTVYQIFPDEVLGSGQFGIVYGGKHRKTGRDVAIKIIDKLRFPTKQESQLRNEVAILQNLHHPGVVNLECMFETPERVFVVMEKLHGDMLEMILSSEKGRLPEHITKFLITQILVALRHLHFKNIVHCDLKPENVLLASADPFPQVKLCDFGFARIIGEKSFRRSVVGTPAYLAPEVLRNKGYNRSLDMWSVGVIIYVSLSGTFPFNEDEDIHDQIQNAAFMYPPNPWKEISHEAIDLINNLLQVKMRKRYSVDKTLSHPWLQDYQTWLDLRELECRIGERYITHESDDSRWEQYAGEQGLQYPAHLISLSASHSDSPEAEEREMKALSERVSIL
modifications: ~80% dephosphorylation of the kinase by alkaline phosphatase
In the case of B1, the fold reduction of affinity against untreated PKD1 is reported as 5 fold.
